Here are results for one substance from publication PMC10090020.

For the assay, the target named is mCherry-CARACB(G15V) (barley (Hordeum vulgare)). Nature of the assay: FRET or BRET; FLIM-FRET in barley epidermal cells transiently co-expressing meGFP-RIC157 (donor) and mCherry-RACB forms (acceptor) after particle bombardment; meGFP lifetime measured at the equatorial plane; at least 10 cells per interaction in two replicates.

In turn, meGFP-RIC157 (natural protein) returned a meGFP fluorescence lifetime of 2.2 ns.
